Experimental data: publication doi:10.1101/2023.07.10.548257 (bioRxiv, 2024)
Residue numbers refer to the chain shown, from its start. No end group written: not given here.

Assays:
Format in all cases: binding
SHP2 C-SH2^WT domain = target: T1, SHP2 C-SH2^WT domain (Homo sapiens, UniProt Q06124); experiment: SH2 specificity profiling by bacterial peptide display (Human pTyr and pTyr-Var Libraries), C-SH2 WT; details: for >3.2 --> C-WT-Ave: average enrichment score above cutoff of 3.2 (true binder); for C-WT-Ave (enrichment score): bacterial peptide display, frequency in enriched sample / input, average, Human pTyr Library N = 3, pTyr-Var Library N = 2
T1 construct: SHP2 SH2 domains were cloned into a His6-SUMO-SH2-Avi construct; His6-SUMO (N, cleaved yes); made in house; host or cells: E. coli C43(DE3), co-expressed with BirA
T1 sequence (Q06124 112-216 limits assumed): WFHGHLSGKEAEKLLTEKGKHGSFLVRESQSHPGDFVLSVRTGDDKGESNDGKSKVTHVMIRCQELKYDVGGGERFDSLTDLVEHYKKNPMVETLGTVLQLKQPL
Protocol: (§1) Next, we characterized the sequence specificity of the SH2 mutants relative to their wild-type counterparts in a large-scale, unbiased screen. […] For each peptide in a library, an enrichment score is calculated from the deep sequencing data as the frequency of the peptide in the SH2-enriched sample divided by the frequency of the peptide in the unenriched input sample ([34]). For this study, we used two largely non-overlapping libraries, both encoding known human phosphosites. […] The Human pTyr Library consists of 1,916 sequences derived from known phosphorylation sites in the human proteome, along with another 617 control mutants ([35]). […]
(§2) SH2 specificity profiling using bacterial peptide display
(§3) Preparation of bacterial cells
(§4) Electrocompetent MC1061 cells were transformed with ~100 ng of the respective library. After 1 hour recovery in 1 mL LB, cells were further diluted into 250 mL LB + 0.1% chloramphenicol. 1.8 mL of overnight culture was used to inoculate 100 mL LB + 0.1% chloramphenicol, and grown until OD600 reached 0.5. 20 mL of cell suspension was induced at 25 °C using a final concentration of 0.4% arabinose until the OD600 ~ 1 (after approximately 4 hours). The cells were spun down at 4000 rpm for 15 minutes, and the pellet was resuspended in PBS so that the OD600 ~1.5. The cells were stored in the fridge and used within a week.
(§5) For each sample, 75 μL of Dynabeads™ FlowComp™ Flexi Kit were washed twice in 1 mL SH2 buffer (50 mM HEPES pH 7.5, 150 mM NaCl, 1 mM TCEP, and 0.2% BSA) on a magnetic rack.
(§6) The beads were then resuspended in 75 μL of SH2 buffer. SH2 domains were thawed quickly and 20 μM of protein was added to the beads. SH2 buffer was added up to 150 μL, and the suspension was incubated for 1 hour at 4 °C while rotating. After 1 hour, the suspension was placed on a magnetic rack and washed twice with 1 mL SH2 buffer.
(§7) Preparing the phosphorylated cells
(§8) 150 μL of prepared cells per sample were spun down for 4000 rpm for 5 minutes at 4 °C.
(§9) Kinase screen buffer was prepared (50 mM Tris, 10 mM magnesium chloride, 150 mM sodium chloride; add 2 mM sodium orthovanadate and 1 mM TCEP fresh) and the cells of each sample were resuspended in 100 μL kinase screen buffer. Kinases c-Src, c-Abl, AncSZ, Eph1B were added to a final concentration of 2.5 µM each, creatine phosphate was added to a final concentration of 5 mM, and phosphokinase was added to a final concentration of 50 µg/mL. The suspension was incubated at 37 °C for 5 minutes before ATP was added to a final concentration of 1 mM. This mixture was incubated at 37 °C for 3 hours. After 3 hours, EDTA was added to a final concentration of 25 mM to quench the reaction. The input library control sample was not phosphorylated. These cells were spun down at 4000 rpm for 15 minutes at 4 °C. The cells were then resuspended in 100 µL of SH2 buffer + 0.1% BSA. Phosphorylation of the cells was confirmed by labeling with the PY20-PerCP-eFluor 710 pan-phosphotyrosine antibody followed by analysis via flow cytometry.
(§10) Enriching for cells displaying high-affinity phosphopeptide ligands
(§11) 100 μL of phosphorylated cells were mixed with 75 µL SH2-beads for 1 hour at 4 °C while rotating. After 1 hour, samples were placed on a magnetic rack, supernatant was removed and 1 mL SH2 buffer was added to each sample. This was rotated for 30 minutes at 4 °C to wash the beads.
(§12) After this wash, the beads were placed on a magnetic rack, the supernatant was removed and 50 µL […]
(§13) Preparing sequencing samples & deep sequencing
(§14) All SH2-selected samples and the input library control were resuspended in 50 µL MilliQ water, vortexed, and boiled for 10 minutes at 100 °C. The boiled lysate was used as the DNA template in a PCR reaction using the TruSeq-eCPX-Fwd and TruSeq-eCPX-Rev primers. The mixture resulting from this PCR was used directly into a second PCR to append Illumina sequencing adaptors and Supplementary Information - page 5 of 18 […]
(§15) unique 5’ and 3’ indices to each sample (D700 and D500 series primers). The resulting PCR mixtures […]

SHP2 C-SH2^E139D domain = target: T2, SHP2 C-SH2^E139D domain (Homo sapiens, UniProt Q06124, E139D); experiment: SH2 specificity profiling by bacterial peptide display (Human pTyr and pTyr-Var Libraries), C-SH2 E139D; details: for >3.2 --> C-E139D-Ave: average enrichment score above cutoff of 3.2 (true binder); for C-E139D-Ave (enrichment score): bacterial peptide display, frequency in enriched sample / input, average, Human pTyr Library N = 3, pTyr-Var Library N = 2
T2 construct: SHP2 SH2 domains were cloned into a His6-SUMO-SH2-Avi construct; His6-SUMO (N, cleaved yes); made in house; host or cells: E. coli C43(DE3), co-expressed with BirA
T2 sequence (Q06124 112-216 E139D limits assumed): T1 sequence (Q06124 112-216 limits assumed) with E28D
Protocol: as §1, §2, §3, §4, §5, §6, §7, §8, §9, §10, §11, §12, §13, §14, §15

SHP2 N-SH2^WT domain = target: T3, SHP2 N-SH2^WT domain (Homo sapiens, UniProt Q06124); experiment: SH2 specificity profiling by bacterial peptide display (Human pTyr and pTyr-Var Libraries), N-SH2 WT; details: for >3.2 --> N-WT-Ave: average enrichment score above cutoff of 3.2 (true binder); for N-WT-Ave (enrichment score): bacterial peptide display, enzymatically phosphorylated displayed peptides, SH2-coated beads, deep sequencing, frequency in enriched sample / input, average, Human pTyr Library N = 3, pTyr-Var Library N = 2
T3 construct: SHP2 SH2 domains were cloned into a His6-SUMO-SH2-Avi construct; His6-SUMO (N, cleaved yes); made in house; host or cells: E. coli C43(DE3), co-expressed with BirA
T3 sequence (Q06124 6-102 limits assumed): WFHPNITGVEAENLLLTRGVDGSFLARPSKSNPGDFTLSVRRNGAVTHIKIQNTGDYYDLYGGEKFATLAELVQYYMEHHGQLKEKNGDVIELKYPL
Protocol: as §1, §2, §3, §4, §5, §6, §7, §8, §9, §10, §11, §12, §13, §14, §15

>3.2 --> C-WT-Ave (SHP2 C-SH2^WT domain)	C-WT-Ave (enrichment score) (SHP2 C-SH2^WT domain)	>3.2 --> C-E139D-Ave (SHP2 C-SH2^E139D domain)	C-E139D-Ave (enrichment score) (SHP2 C-SH2^E139D domain)	>3.2 --> N-WT-Ave (SHP2 N-SH2^WT domain)	N-WT-Ave (enrichment score) (SHP2 N-SH2^WT domain)	Sequence
FALSE (>3.2 -->)	0.6613	FALSE (>3.2 -->)	0.7738	FALSE (>3.2 -->)	0.7788	MKGDAHRYLAEFATG (bacterially displayed) [1433E_HUMAN_131_YA]
FALSE (>3.2 -->)	0.8786	FALSE (>3.2 -->)	0.911	FALSE (>3.2 -->)	0.8269	MKGDYHRYLAEFATG (also: phosphorylated, site not given here) [1433E_HUMAN_131]
FALSE (>3.2 -->)	0.777	FALSE (>3.2 -->)	0.8393	FALSE (>3.2 -->)	0.8572	MKGDYYRYLAEVATG (also: phosphorylated, site not given here) [1433G_HUMAN_133]
FALSE (>3.2 -->)	0.7595	FALSE (>3.2 -->)	0.8092	FALSE (>3.2 -->)	0.7728	SDRKGGSYTQAASSD (also: phosphorylated, site not given here) [1A01_HUMAN_344]
